Laboratory results taken from patent US20240327530A1 (ICHNOS SCIENCES, published 2024).

T1: Recombinant human IL-1RAP Fc fusion protein (Acrobiosystems, catalog no. ILP-H5256) (human, UniProt Q9NPH3 21-359, limits assumed)
T1 construct: Bought; not shown: Fc part of the bought fusion protein
T1 sequence: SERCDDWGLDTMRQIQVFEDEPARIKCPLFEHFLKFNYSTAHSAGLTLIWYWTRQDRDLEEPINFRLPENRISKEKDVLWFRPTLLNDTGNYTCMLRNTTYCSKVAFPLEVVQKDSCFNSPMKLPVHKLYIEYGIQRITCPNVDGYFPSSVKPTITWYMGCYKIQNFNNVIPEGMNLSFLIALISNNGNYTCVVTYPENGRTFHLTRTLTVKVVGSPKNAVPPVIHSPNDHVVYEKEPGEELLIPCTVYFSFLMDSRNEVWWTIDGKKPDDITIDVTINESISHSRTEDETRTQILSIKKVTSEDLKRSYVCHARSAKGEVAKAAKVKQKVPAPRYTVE

T2: Recombinant mouse IL-1RAP Fc fusion protein (Sino Biologicals, catalog no. 52657-M02H) (mouse, UniProt Q61730 21-350)
T2 construct: Bought; not shown: Fc part of the bought fusion protein
T2 sequence: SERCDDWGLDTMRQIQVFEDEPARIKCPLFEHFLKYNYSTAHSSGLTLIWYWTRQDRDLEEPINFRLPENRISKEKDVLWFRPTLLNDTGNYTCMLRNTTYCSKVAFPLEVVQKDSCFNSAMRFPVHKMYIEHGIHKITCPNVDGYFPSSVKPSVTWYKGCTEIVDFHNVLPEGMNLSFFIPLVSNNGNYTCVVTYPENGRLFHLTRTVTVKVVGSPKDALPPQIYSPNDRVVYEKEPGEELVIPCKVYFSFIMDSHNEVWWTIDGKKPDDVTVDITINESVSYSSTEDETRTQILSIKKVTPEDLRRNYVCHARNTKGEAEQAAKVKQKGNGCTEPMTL

T3: Recombinant cynomolgus monkey IL-1RAP-ECD(S21-E359)-avi-his protein (cynomolgus monkey, UniProt P59822 21-359 (rhesus entry))
T3 construct: also called cyno IL-1RAP-ECD-Avi-His; recombinant cynomolgus monkey IL-1RAP-avi-his protein
T3 sequence: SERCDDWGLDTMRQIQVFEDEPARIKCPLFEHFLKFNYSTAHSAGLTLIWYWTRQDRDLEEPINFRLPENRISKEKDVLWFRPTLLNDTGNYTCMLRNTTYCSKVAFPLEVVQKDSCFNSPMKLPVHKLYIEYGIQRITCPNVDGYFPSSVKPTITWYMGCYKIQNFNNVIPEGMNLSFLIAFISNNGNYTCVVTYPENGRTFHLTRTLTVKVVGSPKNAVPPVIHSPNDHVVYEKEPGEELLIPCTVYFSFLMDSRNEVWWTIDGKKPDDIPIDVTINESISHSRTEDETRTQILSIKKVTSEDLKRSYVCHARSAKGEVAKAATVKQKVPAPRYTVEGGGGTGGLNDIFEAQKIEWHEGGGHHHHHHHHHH


Key:
[1] = target: T1, Recombinant human IL-1RAP Fc fusion …; test: SPR, human IL-1RAP-Fc captured, Fab as analyte, 1:1 fit
Description: (§1) Surface plasmon resonance (SPR) was used to measure the binding affinities of the Fab fragments for human, cynomolgus monkey and/or mouse IL-1RAP. Affinities were measured on a BIACORE™ T200 instrument (BIACORE™, GE […]®) at 25° C. and analyzed with the BIACORE™ T200 Evaluation Software (v3.1). Measurements were performed on Series S CM5 sensor chips (BIACORE™ T200, BIACORE™, GE […]®, catalog no. BR100530) coupled with anti-human IgG Fc (BIACORE™, GE […]®, catalog no. BR100839) using a commercial amine coupling kit (BIACORE™, GE […]®, catalog no. BR100050) or on Series S BiotinCAPture chips (BIACORE™, GE […]®, catalog no. 28920234). SPR measurements were performed with commercially available recombinant human IL-1RAP Fc fusion protein (Acrobiosystems, catalog no. ILP-H5256) and recombinant mouse IL-1RAP Fc fusion protein (Sino Biologicals, catalog no. 52657-M02H) or with biotinylated recombinant cynomolgus monkey IL-1RAP-avi-his protein produced in-house (SEQ ID NO. 2).
(§2) The affinities to human, cynomolgus monkey and mouse IL-1RAP were assessed by immobilizing IL-1RAP and using Fab fragments as analyte. Around 100 RU of human or mouse IL-1RAP Fc fusion protein were captured on fc2 of a Series S CM5 sensor chip coupled with anti-human IgG Fc and around 150 RU of biotinylated cynomolgus monkey IL-1RAP protein were captured on fc2 of a Series S BiotinCAPture chip. Fab fragments were injected in single cycle kinetic at different concentrations ranging from 7.8 to 500 nM, in HBS-EP+ buffer (BIACORE™, GE […]®, catalog no. BR100669) at a flow rate of 30 μl/min for 3 min on fc1 and fc2 (fc1 being used as reference). Dissociation was monitored for 5 min. After each cycle, the surface was regenerated with 60 μl of regeneration solution provided with anti-human IgG Fc capture kit (BIACORE™, GE […]®, catalog no. BR100839) or BiotinCAPture kit (BIACORE™, GE […]®, catalog no. 28920234) respectively. Experimental data were processed using the 1:1 Langmuir kinetic fitting model. Measurements included zero-concentration samples for referencing. Chi², U- and residual values were used to evaluate the quality of a fit between the experimental data and individual binding models.

[2] = target: T2, Recombinant mouse IL-1RAP Fc fusion …; test: SPR, mouse IL-1RAP-Fc captured, Fab as analyte
Description: as §1, §2

[3] = target: T3, Recombinant cynomolgus monkey …; test: SPR, biotinylated cyno IL-1RAP-avi-his captured, Fab as analyte, 1:1 fit
Description: as §1, §2

[4] = target: T1, Recombinant human IL-1RAP Fc fusion …; test: SPR, human IL-1RAP-Fc captured, Fab as analyte (0.08 to 50 nM)
Description: BR100669) at a flow rate of 30 μl/min for 3 min on fc1 and fc2 (fc1 being used as reference). Dissociation was monitored for 5 min. After each cycle, the surface was regenerated with 60 μl of regeneration solution provided with anti-human IgG Fc capture kit (BIACORE™, GE […]®, catalog no. BR100839) or BiotinCAPture kit (BIACORE™, GE […]®, catalog no. 28920234) respectively. Experimental data were processed using the 1:1 Langmuir kinetic fitting model. Measurements included zero-concentration samples for referencing. Chi², U- and residual values were used to evaluate the quality of a fit between the experimental data and individual binding models. […]

Binder | Kd [1] [nM] | binding result [2] | Kd [3] [nM] | Kd [4] [nM]
Anti-IL-1RAP-C8-H1A-C4-Fab (Fab, V domains shown) VH: QVQLVQSGAEVKKPGSSVKVSCKASGGKLNAYAIQWVRQAPGQGLEWMGYIIPLHGQVDYAQKFQGRVTITADESTSTAYMELSSLRSEDTAVYYCARGQTLYDSGRQFDIWGQGTLVTVSS VL: not shown | – | – | – | 0.995
Anti-IL-1RAP-C8-H1A-G3-Fab (Fab, V domains shown) VH: QVQLVQSGAEVKKPGSSVKVSCKASGGPFSDYAIQWVRQAPGQGLEWMGYIIPLHGQVDYAQKFQGRVTITADESTSTAYMELSSLRSEDTAVYYCARGQTLYDSGRQFDIWGQGTLVTVSS VL: not shown | – | – | – | 0.623
Anti-IL-1RAP-C8-H1A-G11-Fab (Fab, V domains shown) VH: QVQLVQSGAEVKKPGSSVKVSCKASGGRFHQYAIQWVRQAPGQGLEWMGYIIPLHGQVDYAQKFQGRVTITADESTSTAYMELSSLRSEDTAVYYCARGQTLYDSGRQFDIWGQGTLVTVSS VL: not shown | – | – | – | 0.742
Anti-IL-1RAP-C8-H1A-D8-Fab (Fab, V domains shown) VH: QVQLVQSGAEVKKPGSSVKVSCKASGGHFNNYAIQWVRQAPGQGLEWMGYIIPLHGQVDYAQKFQGRVTITADESTSTAYMELSSLRSEDTAVYYCARGQTLYDSGRQFDIWGQGTLVTVSS VL: not shown | – | – | – | 1.51
Anti-IL-1RAP-C8-H1A-F1-Fab (Fab, V domains shown) VH: QVQLVQSGAEVKKPGSSVKVSCKASGGIFSNYAIQWVRQAPGQGLEWMGYIIPLHGQVDYAQKFQGRVTITADESTSTAYMELSSLRSEDTAVYYCARGQTLYDSGRQFDIWGQGTLVTVSS VL: not shown | – | – | – | 0.832
Anti-IL-1RAP-C8-H1A-G1-Fab (Fab, V domains shown) VH: QVQLVQSGAEVKKPGSSVKVSCKASGGASRAYAIHWVRQAPGQGLEWMGYIIPLHGQVDYAQKFQGRVTITADESTSTAYMELSSLRSEDTAVYYCARGQTLYDSGRQFDIWGQGTLVTVSS VL: not shown | – | – | – | 0.424
Anti-IL-1RAP-C8-H1A-C8-Fab (Fab, V domains shown) VH: QVQLVQSGAEVKKPGSSVKVSCKASGGLFSDYAIQWVRQAPGQGLEWMGYIIPLHGQVDYAQKFQGRVTITADESTSTAYMELSSLRSEDTAVYYCARGQTLYDSGRQFDIWGQGTLVTVSS VL: not shown | – | – | – | 1.24

Next, values leading:

Kd [1] [nM] | binding result [2] | Kd [3] [nM] | Kd [4] [nM] | Binder
420 | no binding (tested: 7.8 to 500 nM Fab) | 378 | – | Anti-IL-1RAP-UCP03-G4-Fab (Fab, V domains shown) VH: QVQLVQSGAEVKKPGSSVKVSCKASGGRFSHYVFSWVRQAPGQGLEWMGGIIPYEGKPFYAQKFQGRVTITADESTSTAYMELSSLRSEDTAVYYCARSDYFYYYFDPWGQGTLVTVSS VL: not shown
279 | no binding (tested: 7.8 to 500 nM Fab) | 464 | – | Anti-IL-1RAP-UCP03-G3-Fab (Fab, V domains shown) VH: QVQLVQSGAEVKKPGSSVKVSCKASGGPLSGYAFHWVRQAPGQGLEWMGGIIPNFAQTDYAQKFQGRVTITADESTSTAYMELSSLRSEDTAVYYCARFSIYSGWSDVWGQGTLVTVSS VL: not shown
98.1 | no binding (tested: 7.8 to 500 nM Fab) | 78.7 | – | Anti-IL-1RAP-UCP02-B11-Fab (Fab, V domains shown) VH: QVQLVQSGAEVKKPGSSVKVSCKASGGHFSQFAISWVRQAPGQGLEWMGGIAPGLGSTRYAQKFQGRVTITADESTSTAYMELSSLRSEDTAVYYCARDSIYSAWLAYWGQGTLVTVSS VL: not shown
700 | no binding (tested: 7.8 to 500 nM Fab) | 486 | – | Anti-IL-1RAP-UCP03-C2-Fab (Fab, V domains shown) VH: QVQLVQSGAEVKKPGSSVKVSCKASGDPFKRYAIGWVRQAPGQGLEWMGGIIPTTGEAIYAQKFQGRVTITADESTSTAYMELSSLRSEDTAVYYCARHGTTYAAFDHWGQGTLVTVSS VL: not shown
– | – | – | 0.522 | Anti-IL-1RAP-C8-H1B-A8-Fab (Fab, V domains shown) VH: QVQLVQSGAEVKKPGSSVKVSCKASGEGSYPYAIQWVRQAPGQGLEWMGYIIPLHGQVDYAQKFQGRVTITADESTSTAYMELSSLRSEDTAVYYCARGQTLYDSGRQFDIWGQGTLVTVSS VL: not shown
– | – | – | 0.476 | Anti-IL-1RAP-C8-H1B-D8-Fab (Fab, V domains shown) VH: QVQLVQSGAEVKKPGSSVKVSCKASGPSNPVYAIQWVRQAPGQGLEWMGYIIPLHGQVDYAQKFQGRVTITADESTSTAYMELSSLRSEDTAVYYCARGQTLYDSGRQFDIWGQGTLVTVSS VL: not shown
– | – | – | 0.373 | Anti-IL-1RAP-C8-H1B-B8-Fab (Fab, V domains shown, also called ISB 880-C8-H1B-B8) VH: QVQLVQSGAEVKKPGSSVKVSCKASGSPAEPYAIQWVRQAPGQGLEWMGYIIPLHGQVDYAQKFQGRVTITADESTSTAYMELSSLRSEDTAVYYCARGQTLYDSGRQFDIWGQGTLVTVSS VL: not shown
– | – | – | 0.553 | Anti-IL-1RAP-C8-H1B-B10-Fab (Fab, V domains shown) VH: QVQLVQSGAEVKKPGSSVKVSCKASGVTHTSYAIQWVRQAPGQGLEWMGYIIPLHGQVDYAQKFQGRVTITADESTSTAYMELSSLRSEDTAVYYCARGQTLYDSGRQFDIWGQGTLVTVSS VL: not shown
– | – | – | 0.313 | Anti-IL-1RAP-C8-H1B-G10-Fab (Fab, V domains shown) VH: QVQLVQSGAEVKKPGSSVKVSCKASGGPRRAYAIQWVRQAPGQGLEWMGYIIPLHGQVDYAQKFQGRVTITADESTSTAYMELSSLRSEDTAVYYCARGQTLYDSGRQFDIWGQGTLVTVSS VL: not shown
– | – | – | 0.831 | Anti-IL-1RAP-C8-H1B-E7-Fab (Fab, V domains shown) VH: QVQLVQSGAEVKKPGSSVKVSCKASGSKHGNYAIQWVRQAPGQGLEWMGYIIPLHGQVDYAQKFQGRVTITADESTSTAYMELSSLRSEDTAVYYCARGQTLYDSGRQFDIWGQGTLVTVSS VL: not shown
– | – | – | 0.427 | Anti-IL-1RAP-C8-H1B-F3-Fab (Fab, V domains shown) VH: QVQLVQSGAEVKKPGSSVKVSCKASGGPHTAHAIQWVRQAPGQGLEWMGYIIPLHGQVDYAQKFQGRVTITADESTSTAYMELSSLRSEDTAVYYCARGQTLYDSGRQFDIWGQGTLVTVSS VL: not shown
